According to patent US20230312755A1 (ANGITIA, published 2023):

Columns and labels:
human RANKL [1] = target: T1, human RANKL (human, UniProt O14788 140-317, limits assumed); experiment: BLI (Gator), antibody on anti-hFc biosensor, antigen as analyte, 1:1 global fit
T1 construct: Analyte in BLI; also called hRANKL; TNFSF11
T1 sequence (looked up): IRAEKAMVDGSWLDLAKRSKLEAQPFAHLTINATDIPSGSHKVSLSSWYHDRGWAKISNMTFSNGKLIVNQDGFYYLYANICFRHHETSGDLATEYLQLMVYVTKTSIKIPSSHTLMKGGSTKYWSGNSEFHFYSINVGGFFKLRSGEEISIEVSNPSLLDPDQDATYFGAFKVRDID
Protocol: (§1) Binding kinetics and affinities of anti-Sclerostin×anti-DKK1 and anti-Sclerostin×anti-RANKL bispecific antibodies were measured with Gator (Probe Life) bio-layer interferometry (BLI). Antibodies were immobilized on an anti-hFc biosensor, using a 5 μg/ml solution. Serial dilutions of sclerostin (from 1 μg/ml), DKK1 (from 2 μg/ml), or RANKL (from 4 μg/ml) by two folds in kinetics buffer (PBS, pH 7.4, 0.05% Tween-20, 0.2% BSA) were used as the analytes. Affinity (KD) and kinetic parameters (Kₒₙ and Koff) were calculated from a global fit (1:1) of the data using the Gator software.

human Sclerostin [2] = target: T2, human Sclerostin (human, UniProt Q9BQB4 24-213); experiment: as above
T2 construct: Analyte of the BLI assays and the protein added in the reporter assays; also called hSclerostin; SOST
T2 sequence: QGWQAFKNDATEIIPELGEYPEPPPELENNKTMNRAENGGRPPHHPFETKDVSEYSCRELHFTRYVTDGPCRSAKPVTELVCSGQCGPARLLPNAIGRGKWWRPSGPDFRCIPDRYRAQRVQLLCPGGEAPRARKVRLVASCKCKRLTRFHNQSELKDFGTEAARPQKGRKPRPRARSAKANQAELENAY
Protocol: as §1

human RANKL [3] = target: T1, human RANKL; experiment: BLI (Gator), antibody on anti-hFc biosensor, antigen as analyte; koff at LOD, KD estimated
Protocol: as §1

human Sclerostin [4] = target: T2, human Sclerostin; experiment: as above
Protocol: as §1

kon (human RANKL [1]): 86700 M⁻¹ s⁻¹ | kon (human Sclerostin [2]): 757000 M⁻¹ s⁻¹ | Kd (human RANKL [3]): ~0.01 nM | Kd (human Sclerostin [4]): ~0.01 nM
B1: BAP0069 (bispecific antibody, human IgG4 S228P, kappa, F234A L235A)
heavy: EVQLVQSGAEVKKPGASVKVSCKASGYTFTDYEIHWVRQAPGKGLEWMGAIDPETGGTAYNQKFKGRVTMTTDTSTSTAYMELRSLRSDDTAVYYCYSYDYVTYWGQGTTVTVSSASTKGPSVFPLAPCSRSTSESTAALGCLVKDYFPEPVTVSWNSGALTSGVHTFPAVLQSSGLYSLSSVVTVPSSSLGTKTYTCNVDHKPSNTKVDKRVESKYGPPCPPCPAPEAAGGPSVFLFPPKPKDTLMISRTPEVTCVVVDVSQEDPEVQFNWYVDGVEVHNAKTKPREEQFNSTYRVVSVLTVLHQDWLNGKEYKCKVSNKGLPSSIEKTISKAKGQPREPQVYTLPPSQEEMTKNQVSLTCLVKGFYPSDIAVEWESNGQPENNYKTTPPVLDSDGSFFLYSKLTVDKSRWQEGNVFSCSVMHEALHNHYTQKSLSLSPGKGGGGSGGGGSGGGGSEIVLTQSPGTLSLSPGERATLSCRASQSVRGRYLAWYQQKPGQAPRLLIYGASSRATGIPDRFSGSGSGTDFTLTISRLEPEDFAVFYCQQYGSSPRTFGCGTKVEIKGGGGSGGGGSGGGGSGGGGSEVQLLESGGGLVQPGGSLRLSCAASGFTFSSYAMSWVRQAPGKCLEWVSGITGSGGSTYYADSVKGRFTISRDNSKNTLYLQMNSLRAEDTAVYYCAKDPGTTVIMSWFDPWGQGTLVTVSA
light: DVVMTQSPLSLSVSPGERASLSCKSSQSLLYSDGRTYLNWYLQKPGQSPQRLIYLVSKLDSGVPDRFSGSGSGTDFTLKISRVQSEDVGVYYCWQGTHLPHTFGGGTKVEIKRTVAAPSVFIFPPSDEQLKSGTASVVCLLNNFYPREAKVQWKVDNALQSGNSQESVTEQDSKDSTYSLSSTLTLSKADYEKHKVYACEVTHQGLSSPVTKSFNRGEC
notes: Anti-RANKL scFv (VL-VH, Denosumab) fused to the C-terminus of the heavy chains of the anti-Sclerostin full length antibody (hAb-1)
